From US20260240959A1, “METHODS FOR IN VIVO EDITING OF KLKB1” (INTELLIA THERAPEUTICS, INC., priority 2022, published 2026)
In the oligonucleotide strings, read from the 5' end, every base follows the letter of its sugar. An asterisk marks phosphorothioate; unmarked linkages are phosphodiester. Other units and linkages are bracketed, terminal groups are in braces. A string of capitals states the bases alone. m = 2'-O-methyl; r = 2'-OH (RNA)

Legend:
[1] = tested on: plasma kallikrein protein; test: Plasma kallikrein protein level in cynomolgus monkeys; assay type: in vivo, cynomolgus monkey; details: n=3
Experimental: (§1) Cynomolgus monkeys were treated in cohorts of n=3. This study was conducted with LNP formulations according to Example 1. […]. Animals were dosed at 1.5, 3, or 6 mg per kg doses based on total RNA cargo. Indel formation (percent editing) was measured by NGS. Total kallikrein activity and plasma kallikrein protein level were measured as described above. […]

plasma kallikrein = test: Plasma kallikrein activity in cynomolgus monkeys; assay type: in vivo, cynomolgus monkey
Experimental: as §1

B1: G013901: cynomolgus specific KLKB1 guide RNA (SEQ ID NO: 409); dosed as LNP formulation with Cas9 mRNA (nucleic acid)
guide: mG*mG*mA*rUrUrArCrArUrArUrGrGrGrArCrArCrArArGrUrUrUrUrArGrAmGmCmUmAmGmAmAmAmUmAmGmCrArArGrUrUrArArArArUrArArGrGrCrUrArGrUrCrCrGrUrUrArUrCrAmAmCmUmUmGmAmAmAmAmAmGmUmGmGmCmAmCmCmGmAmGmUmCmGmGmUmGmCmU*mU*mU*mU
Plasma Kallikrein Protein Levels (% of basal level), Mean ([1]; 1.5 mpk, Day 14): 28.8 % of basal level | Plasma Kallikrein Protein Levels (% of basal level), Mean ([1]; 1.5 mpk, Day 28): 32.7 % of basal level | Plasma Kallikrein Protein Levels (% of basal level), Mean ([1]; 1.5 mpk, Day 42): 31.5 % of basal level | Plasma Kallikrein Protein Levels (% of basal level), Mean ([1]; 1.5 mpk, Day 56): 30.1 % of basal level | Plasma Kallikrein Protein Levels (% of basal level), Mean ([1]; 1.5 mpk, Day 70): 29.8 % of basal level | Plasma Kallikrein Protein Levels (% of basal level), Mean ([1]; 1.5 mpk, Day 84): 38.7 % of basal level | Plasma Kallikrein Protein Levels (% of basal level), Mean ([1]; 1.5 mpk, Day 105): 47 % of basal level | Plasma Kallikrein Protein Levels (% of basal level), Mean ([1]; 1.5 mpk, Day 119): 31.6 % of basal level | Plasma Kallikrein Protein Levels (% of basal level), Mean ([1]; 1.5 mpk, Day 147): 32.1 % of basal level | Plasma Kallikrein Protein Levels (% of basal level), Mean ([1]; 1.5 mpk, Day 161): 35.8 % of basal level | Plasma Kallikrein Protein Levels (% of basal level), Mean ([1]; 1.5 mpk, Day 180): 33.8 % of basal level | Plasma Kallikrein Protein Levels (% of basal level), Mean ([1]; 1.5 mpk, Day 238): 27.4 % of basal level | Plasma Kallikrein Protein Levels (% of basal level), Mean ([1]; 1.5 mpk, Day 252): 27.9 % of basal level | Plasma Kallikrein Protein Levels (% of basal level), Mean ([1]; 1.5 mpk, Day 266): 28.7 % of basal level | Plasma Kallikrein Protein Levels (% of basal level), Mean ([1]; 1.5 mpk, Day 280): 33.7 % of basal level | Plasma Kallikrein Protein Levels (% of basal level), Mean ([1]; 1.5 mpk, Day 294): 30.4 % of basal level | Plasma Kallikrein Protein Levels (% of basal level), Mean ([1]; 1.5 mpk, Day 308): 20.6 % of basal level | Plasma Kallikrein Protein Levels (% of basal level), Mean ([1]; 1.5 mpk, Day 326): 29.7 % of basal level | Plasma Kallikrein Protein Levels (% of basal level), Mean ([1]; 1.5 mpk, Day 333): 30.9 % of basal level | Plasma Kallikrein Protein Levels (% of basal level), Mean ([1]; 1.5 mpk, Day 347): 26 % of basal level | Plasma Kallikrein Protein Levels (% of basal level), Mean ([1]; 1.5 mpk, Day 365): 22.7 % of basal level | Plasma Kallikrein Protein Levels (% of basal level), Mean ([1]; 3 mpk, Day 14): 27.1 % of basal level | Plasma Kallikrein Protein Levels (% of basal level), Mean ([1]; 3 mpk, Day 28): 16.9 % of basal level | Plasma Kallikrein Protein Levels (% of basal level), Mean ([1]; 3 mpk, Day 42): 16 % of basal level | Plasma Kallikrein Protein Levels (% of basal level), Mean ([1]; 3 mpk, Day 56): 15.4 % of basal level | Plasma Kallikrein Protein Levels (% of basal level), Mean ([1]; 3 mpk, Day 70): 15.4 % of basal level | Plasma Kallikrein Protein Levels (% of basal level), Mean ([1]; 3 mpk, Day 84): 17.1 % of basal level | Plasma Kallikrein Protein Levels (% of basal level), Mean ([1]; 3 mpk, Day 105): 22.3 % of basal level | Plasma Kallikrein Protein Levels (% of basal level), Mean ([1]; 3 mpk, Day 119): 18.1 % of basal level | Plasma Kallikrein Protein Levels (% of basal level), Mean ([1]; 3 mpk, Day 147): 18.3 % of basal level | Plasma Kallikrein Protein Levels (% of basal level), Mean ([1]; 3 mpk, Day 161): 7.5 % of basal level | Plasma Kallikrein Protein Levels (% of basal level), Mean ([1]; 3 mpk, Day 180): 18 % of basal level | Plasma Kallikrein Protein Levels (% of basal level), Mean ([1]; 3 mpk, Day 238): 16.4 % of basal level | Plasma Kallikrein Protein Levels (% of basal level), Mean ([1]; 3 mpk, Day 252): 15.6 % of basal level | Plasma Kallikrein Protein Levels (% of basal level), Mean ([1]; 3 mpk, Day 266): 21.8 % of basal level | Plasma Kallikrein Protein Levels (% of basal level), Mean ([1]; 3 mpk, Day 280): 24.6 % of basal level | Plasma Kallikrein Protein Levels (% of basal level), Mean ([1]; 3 mpk, Day 294): 24.6 % of basal level | Plasma Kallikrein Protein Levels (% of basal level), Mean ([1]; 3 mpk, Day 308): 27.6 % of basal level | Plasma Kallikrein Protein Levels (% of basal level), Mean ([1]; 3 mpk, Day 326): 23.8 % of basal level | Plasma Kallikrein Protein Levels (% of basal level), Mean ([1]; 3 mpk, Day 333): 25.3 % of basal level | Plasma Kallikrein Protein Levels (% of basal level), Mean ([1]; 3 mpk, Day 347): 22.1 % of basal level | Plasma Kallikrein Protein Levels (% of basal level), Mean ([1]; 3 mpk, Day 365): 11.4 % of basal level | Plasma Kallikrein Protein Levels (% of basal level), Mean ([1]; 6 mpk, Day 14): 13.7 % of basal level | Plasma Kallikrein Protein Levels (% of basal level), Mean ([1]; 6 mpk, Day 28): 6.6 % of basal level | Plasma Kallikrein Protein Levels (% of basal level), Mean ([1]; 6 mpk, Day 42): 6.3 % of basal level | Plasma Kallikrein Protein Levels (% of basal level), Mean ([1]; 6 mpk, Day 56): 5.8 % of basal level | Plasma Kallikrein Protein Levels (% of basal level), Mean ([1]; 6 mpk, Day 70): 5.8 % of basal level | Plasma Kallikrein Protein Levels (% of basal level), Mean ([1]; 6 mpk, Day 84): 6.7 % of basal level | Plasma Kallikrein Protein Levels (% of basal level), Mean ([1]; 6 mpk, Day 105): 7.6 % of basal level | Plasma Kallikrein Protein Levels (% of basal level), Mean ([1]; 6 mpk, Day 119): 6.4 % of basal level | Plasma Kallikrein Protein Levels (% of basal level), Mean ([1]; 6 mpk, Day 147): 6.7 % of basal level | Plasma Kallikrein Protein Levels (% of basal level), Mean ([1]; 6 mpk, Day 161): 7.4 % of basal level | Plasma Kallikrein Protein Levels (% of basal level), Mean ([1]; 6 mpk, Day 180): 2.9 % of basal level | Plasma Kallikrein Protein Levels (% of basal level), Mean ([1]; 6 mpk, Day 238): 3.7 % of basal level | Plasma Kallikrein Protein Levels (% of basal level), Mean ([1]; 6 mpk, Day 252): 3.9 % of basal level | Plasma Kallikrein Protein Levels (% of basal level), Mean ([1]; 6 mpk, Day 266): 3.7 % of basal level | Plasma Kallikrein Protein Levels (% of basal level), Mean ([1]; 6 mpk, Day 280): 6.3 % of basal level | Plasma Kallikrein Protein Levels (% of basal level), Mean ([1]; 6 mpk, Day 294): 7.4 % of basal level | Plasma Kallikrein Protein Levels (% of basal level), Mean ([1]; 6 mpk, Day 308): 6.2 % of basal level | Plasma Kallikrein Protein Levels (% of basal level), Mean ([1]; 6 mpk, Day 326): 8 % of basal level | Plasma Kallikrein Protein Levels (% of basal level), Mean ([1]; 6 mpk, Day 333): 7.8 % of basal level | Plasma Kallikrein Protein Levels (% of basal level), Mean ([1]; 6 mpk, Day 347): 7.3 % of basal level | Plasma Kallikrein Protein Levels (% of basal level), Mean ([1]; 6 mpk, Day 365): 4.3 % of basal level | durability of response in NHPs (plasma kallikrein; cynomolgus monkey, in vivo): durable through one year | Kallikrein Activity (% of basal activity), Mean (plasma kallikrein; n=3, 1.5 mpk, Day 7): 67.8 % of basal activity
